Assay results taken from publication PMC10139993.

B1: Fused in sarcoma (FUS) wildtype with N-terminal GFP tag [not stated] / itself (parent)
chain: MASNDYTQQATQSYGAYPTQPGQGYSQQSSQPYGQQSYSGYSQSTDTSGYGQSSYSSYGQSQNTGYGTQSTPQGYGSTGGYGSSQSSQSSYGQQSSYPGYGQQPAPSSTSGSYGSSSQSSSYGQPQSGSYSQQPSYGGQQQSYGQQQSYNPPQGYGQQNQYNSSSGGGGGGGGGGNYGQDQSSMSSGGGSGGGYGNQDQSGGGGSGGYGQQDRGGRGRGGSGGGGGGGGGGYNRSSGGYEPRGRGGGRGGRGGMGGSDRGGFNKFGGPRDQGSRHDSEQDNSDNNTIFVQGLGENVTIESVADYFKQIGIIKTNKKTGQPMINLYTDRETGKLKGEATVSFDDPPSAKAAIDWFDGKEFSGNPIKVSFATRRADFNRGGGNGRGGRGRGGPMGRGGYGGGGSGGGGRGGFPSGGGGGGGQQRAGDWKCPNPTCENMNFSWRNECNQCKAPKPDGPGGGPGGSHMGGNYGDDRRGGRGGYDRGGYRGRGGDRGGFRGGRGGGDRGGFGPGKMDSRGEHRQDRRERPY

Variants of: B1
Test: SiMPull photobleaching step analysis
Conditions: with itself, read off a plot

| photobleaching steps (0.4M sorbitol 4 hr) [steps] | photobleaching steps (no stress) [steps] | photobleaching steps (without stress) [steps] | Variant |
| --- | --- | --- | --- |
| 2 | 1.6 | 1.6 | MASNDYTQQATQSYGAYPTQPGQGYSQQSSQPYGQQSYSGYSQSTDTSGYGQSSYSSYGQSQNTGYGTQSTPQGYGSTGGYGSSQSSQSSYGQQSSYPGYGQQPAPSSTSGSYGSSSQSSSYGQPQSGSYSQQPSYGGQQQSYGQQQSYNPPQGYEQQNQYNSSSGGGGGGGGGGNYGQDQSSMSSGGGSGGGYGNQDQSGGGGSGGYGQQDRGGRGRGGSGGGGGGGGGGYNRSSGGYEPRGRGGGRGGRGGMGGSDRGGFNKFGGPRDQGSRHDSEQDNSDNNTIFVQGLGENVTIESVADYFKQIGIIKTNKKTGQPMINLYTDRETGKLKGEATVSFDDPPSAKAAIDWFDGKEFSGNPIKVSFATRRADFNRGGGNGRGGRGRGGPMGRGGYGGGGSGGGGRGGFPSGGGGGGGQQRAGDWKCPNPTCENMNFSWRNECNQCKAPKPDGPGGGPGGSHMGGNYGDDRRGGRGGYDRGGYRGRGGDRGGFRGGRGGGDRGGFGPGKMDSRGEHRQDRRERPY [chain 1 G156E] |
| 2.1 | 2.1 | 2.1 | MASNDYTQQATQSYGAYPTQPGQGYSQQSSQPYGQQSYSGYSQSTDTSGYGQSSYSSYGQSQNTGYGTQSTPQGYGSTGGYGSSQSSQSSYGQQSSYPGYGQQPAPSSTSGSYGSSSQSSSYGQPQSGSYSQQPSYGGQQQSYGQQQSYNPPQGYGQQNQYNSSSGGGGGGGGGGNYGQDQSSMSSGGGSGGGYGNQDQSGGGGSGGYGQQDRGGRGRGGSGGGGGGGGGGYNRSSGGYEPRGCGGGRGGRGGMGGSDRGGFNKFGGPRDQGSRHDSEQDNSDNNTIFVQGLGENVTIESVADYFKQIGIIKTNKKTGQPMINLYTDRETGKLKGEATVSFDDPPSAKAAIDWFDGKEFSGNPIKVSFATRRADFNRGGGNGRGGRGRGGPMGRGGYGGGGSGGGGRGGFPSGGGGGGGQQRAGDWKCPNPTCENMNFSWRNECNQCKAPKPDGPGGGPGGSHMGGNYGDDRRGGRGGYDRGGYRGRGGDRGGFRGGRGGGDRGGFGPGKMDSRGEHRQDRRERPY [chain 1 R244C] |
| 2.5 | – | – | MASNDYTQQATQSYGAYPTQPGQGYSQQSSQPYGQQSYSGYSQSTDTSGYGQSSYSSYGQSQNTGYGTQSTPQGYGSTGGYGSSQSSQSSYGQQSSYPGYGQQPAPSSTSGSYGSSSQSSSYGQPQSGSYSQQPSYGGQQQSYGQQQSYNPPQGYGQQNQYNSSSGGGGGGGGGGNYGQDQSSMSSSGGSGGGYGNQDQSGGGGSGGYGQQDRGGRGRGGSGGGGGGGGGGYNRSSGGYEPRGRGGGRGGRGGMGGSDRGGFNKFGGPRDQGSRHDSEQDNSDNNTIFVQGLGENVTIESVADYFKQIGIIKTNKKTGQPMINLYTDRETGKLKGEATVSFDDPPSAKAAIDWFDGKEFSGNPIKVSFATRRADFNRGGGNGRGGRGRGGPMGRGGYGGGGSGGGGRGGFPSGGGGGGGQQRAGDWKCPNPTCENMNFSWRNECNQCKAPKPDGPGGGPGGSHMGGNYGDDRRGGRGGYDRGGYRGRGGDRGGFRGGRGGGDRGGFGPGKMDSRGEHRQDRRERPY [chain 1 G187S] |
| 2.2 | 2.2 | 2.2 | MASNDYTQQATQSYGAYPTQPGQGYSQQSSQPYGQQSYSGYSQSTDTSGYGQSSYSSYGQSQNTGYGTQSTPQGYGSTGGYGSSQSSQSSYGQQSSYPGYGQQPAPSSTSGSYGSSSQSSSYGQPQSGSYSQQPSYGGQQQSYGQQQSYNPPQGYGQQNQYNSSSGGGGGGGGGGNYGQDQSSMSSGGGSGGGYGNQDQSGGGGSGGYGQQDRGGCGRGGSGGGGGGGGGGYNRSSGGYEPRGRGGGRGGRGGMGGSDRGGFNKFGGPRDQGSRHDSEQDNSDNNTIFVQGLGENVTIESVADYFKQIGIIKTNKKTGQPMINLYTDRETGKLKGEATVSFDDPPSAKAAIDWFDGKEFSGNPIKVSFATRRADFNRGGGNGRGGRGRGGPMGRGGYGGGGSGGGGRGGFPSGGGGGGGQQRAGDWKCPNPTCENMNFSWRNECNQCKAPKPDGPGGGPGGSHMGGNYGDDRRGGRGGYDRGGYRGRGGDRGGFRGGRGGGDRGGFGPGKMDSRGEHRQDRRERPY [chain 1 R216C] |
